Results on 19 molecules are retold here after patent US20240417436A1.

The labels stand for the following.
B1: CMP-318 (ligand)
chain: SGRVANLVGAPTSSSTKKTQLQLEHLLLDLQEILNGINNYKNPKLTR[Nle]L[hSer][Yn3]KF[Ygp][Nle]PKKATELKHLQCLEEELKPLEEVL[hSer]LAQSKNFHLRPRDLISNINVIVLELKGSETTF[hSer]CEYADETATIVEFLNRWITFSQSIISTLT
modifications: lactam N-32
B2: CMP-152 (ligand)
chain: PLGLAGAPTSSSTKKTQLQLEHLLLDLQ[Nle]ILNGINNYKNPKLTR[Nle]L[hSer][Yn3]KF[Ygp][Nle]PKKATELKHLQCLEEELKPLEEVL[hSer]LAQSKNFHLRPRDLISNINVIVLELKGSETTF[hSer]CEYADETATIVEFLNRWITFSQSIISTLT
modifications: linker N-38 via 1,5‑pentanedioic acid‑9x polyethylene glycol linker
B3: CMP-319 (ligand)
chain: RGRRVANLVGAPTSSSTKKTQLQLEHLLLDLQEILNGINNYKNPKLTR[Nle]L[hSer][Yn3(5)]KF[Ygp(5)][Nle]PKKATELKHLQCLEEELKPLEEVL[hSer]LAQSKNFHLRPRDLISNINVIVLELKGSETTF[hSer]CEYADETATIVEFLNRWITFSQSIISTLT
modifications: lactam N-33
B4: CMP-161 (ligand)
chain: PLGLAGAPTSSSTKKTQLQLEHLLLDLQ[Nle]ILEGINNYKNPKLTR[Nle]L[hSer][Yn3]KF[Ygp][Nle]PKKATELKHLQCLEEELKPLEEVL[hSer]LAQSKNFHLRPRDLISNINVIVLELKGSETTF[hSer]CEYADETATIVEFLNRWITFSQSIISTLT
modifications: bridge N-32; not fully specified (bridges)
B5: CMP-304 (ligand)
chain: PLGLAGAPTSSSTKKTQLQLEHLLLDLQEILNGINNYKNPKLTR[Nle]L[hSer][Yn3]KF[Ygp][Nle]PKKATELKHLQCLEEELKPLEEVL[hSer]LAQSKNFHLRPRDLISNINVIVLELKGSETTF[hSer]CEYADETATIVEFLNRWITFSQSIISTLT
modifications: bridge N-29 via PEG9′
B6: CMP-321 (ligand)
chain: SGRVQPLVDAPTSSSTKKTQLQLEHLLLDLQEILNGINNYKNPKLTR[Nle]L[hSer][Yn3(5)]KF[Ygp(5)][Nle]PKKATELKHLQCLEEELKPLEEVL[hSer]LAQSKNFHLRPRDLISNINVIVLELKGSETTF[hSer]CEYADETATIVEFLNRWITFSQSIISTLT
modifications: lactam N-32
B7: CMP-318, MMP2 cleaved molecule (ligand)
chain: SGRVANLVGAPTSSSTKKTQLQLEHLLLDLQEILNGINNYKNPKLTR[Nle]L[hSer][Yn3]KF[Ygp][Nle]PKKATELKHLQCLEEELKPLEEVL[hSer]LAQSKNFHLRPRDLISNINVIVLELKGSETTF[hSer]CEYADETATIVEFLNRWITFSQSIISTLT
modifications: not fully specified (bridges)
B8: CMP-159 (ligand)
chain: PLGLAGAPTSSSTKKTQLQLEHLLLDLE[Nle]ILNGINNYKNPKLTR[Nle]L[hSer][Yn3]KF[Ygp][Nle]PKKATELKHLQCLEEELKPLEEVL[hSer]LAQSKNFHLRPRDLISNINVIVLELKGSETTF[hSer]CEYADETATIVEFLNRWITFSQSIISTLT
modifications: linker N-28 via 4x polyethylene glycol; reading uncertain
B9: CMP-302 (ligand)
chain: GPLGLAGAPTSSSTKKTQLQLEHLLLDLQEILNGINNYKNPKLTR[Nle]L[hSer][Yn3]KF[Ygp][Nle]PKKATELKHLQCLEEELKPLEEVL[hSer]LAQSKNFHLRPRDLISNINVIVLELKGSETTF[hSer]CEYADETATIVEFLNRWITFSQSIISTLT
modifications: lactam N-30
B10: CMP-154 (ligand)
chain: PLGLAGAPTSSSTKKTQLQLEHLLLDLQ[Nle]ILNGIENYKNPKLTR[Nle]L[hSer][Yn3]KF[Ygp][Nle]PKKATELKHLQCLEEELKPLEEVL[hSer]LAQSKNFHLRPRDLISNINVIVLELKGSETTF[hSer]CEYADETATIVEFLNRWITFSQSIISTLT
modifications: linker N-35 via 9x polyethylene glycol
B11: CMP-321, Matriptase cleaved molecule (ligand)
chain: SGRVQPLVDAPTSSSTKKTQLQLEHLLLDLQEILNGINNYKNPKLTR[Nle]L[hSer][Yn3(5)]KF[Ygp(5)][Nle]PKKATELKHLQCLEEELKPLEEVL[hSer]LAQSKNFHLRPRDLISNINVIVLELKGSETTF[hSer]CEYADETATIVEFLNRWITFSQSIISTLT
modifications: lactam N-32; also: treated with matriptase (cleavage site not given here)
B12: CMP-319, Matriptase cleaved molecule (ligand)
chain: RGRRVANLVGAPTSSSTKKTQLQLEHLLLDLQEILNGINNYKNPKLTR[Nle]L[hSer][Yn3(5)]KF[Ygp(5)][Nle]PKKATELKHLQCLEEELKPLEEVL[hSer]LAQSKNFHLRPRDLISNINVIVLELKGSETTF[hSer]CEYADETATIVEFLNRWITFSQSIISTLT
modifications: lactam N-33; also: treated with matriptase (cleavage site not given here)
B13: CMP-321, MMP2 cleaved molecule (ligand)
chain: SGRVQPLVDAPTSSSTKKTQLQLEHLLLDLQEILNGINNYKNPKLTR[Nle]L[hSer][Yn3(5)]KF[Ygp(5)][Nle]PKKATELKHLQCLEEELKPLEEVL[hSer]LAQSKNFHLRPRDLISNINVIVLELKGSETTF[hSer]CEYADETATIVEFLNRWITFSQSIISTLT
modifications: lactam N-32; also: treated with MMP2 (cleavage site not given here)
B14: CMP-303 (ligand)
chain: PLGLAGAPTSSSTKKTQLQLEHLLLDLQEILNGINNYKNPKLTR[Nle]L[hSer][Yn3]KF[Ygp][Nle]PKKATELKHLQCLEEELKPLEEVL[hSer]LAQSKNFHLRPRDLISNINVIVLELKGSETTF[hSer]CEYADETATIVEFLNRWITFSQSIISTLT
modifications: linker (positions not given here) via 4x polyethylene glycol; not fully specified (bridges); reading uncertain; also: ring may run through the N-terminus of residue 1, not given here
B15: CMP-320, Matriptase cleaved molecule (ligand)
chain: SGRVAPQPLVDAPTSSSTKKTQLQLEHLLLDLQEILNGINNYKNPKLTR[Nle]L[hSer][Yn3(5)]KF[Ygp(5)][Nle]PKKATELKHLQCLEEELKPLEEVL[hSer]LAQSKNFHLRPRDLISNINVIVLELKGSETTF[hSer]CEYADETATIVEFLNRWITFSQSIISTLT
modifications: lactam N-34; also: treated with matriptase (cleavage site not given here)
B16: CMP-320 (ligand)
chain: SGRVAPQPLVDAPTSSSTKKTQLQLEHLLLDLQEILNGINNYKNPKLTR[Nle]L[hSer][Yn3(5)]KF[Ygp(5)][Nle]PKKATELKHLQCLEEELKPLEEVL[hSer]LAQSKNFHLRPRDLISNINVIVLELKGSETTF[hSer]CEYADETATIVEFLNRWITFSQSIISTLT
modifications: lactam N-34
B17: CMP-318, Matriptase cleaved molecule (ligand)
chain: SGRVANLVGAPTSSSTKKTQLQLEHLLLDLQEILNGINNYKNPKLTR[Nle]L[hSer][Yn3(5)]KF[Ygp(5)][Nle]PKKATELKHLQCLEEELKPLEEVL[hSer]LAQSKNFHLRPRDLISNINVIVLELKGSETTF[hSer]CEYADETATIVEFLNRWITFSQSIISTLT
modifications: lactam N-32; also: treated with matriptase, cleavage site not given here
B18: CMP-320, MMP2 cleaved molecule (ligand)
chain: SGRVAPQPLVDAPTSSSTKKTQLQLEHLLLDLQEILNGINNYKNPKLTR[Nle]L[hSer][Yn3(5)]KF[Ygp(5)][Nle]PKKATELKHLQCLEEELKPLEEVL[hSer]LAQSKNFHLRPRDLISNINVIVLELKGSETTF[hSer]CEYADETATIVEFLNRWITFSQSIISTLT
modifications: lactam N-34; also: treated with MMP2 (cleavage site not given here)
B19: CMP-319, MMP2 cleaved molecule (ligand)
chain: RGRRVANLVGAPTSSSTKKTQLQLEHLLLDLQEILNGINNYKNPKLTR[Nle]L[hSer][Yn3(5)]KF[Ygp(5)][Nle]PKKATELKHLQCLEEELKPLEEVL[hSer]LAQSKNFHLRPRDLISNINVIVLELKGSETTF[hSer]CEYADETATIVEFLNRWITFSQSIISTLT
modifications: lactam N-33; also: treated with MMP2 (cleavage site not given here)

Bridges are numbered along the chain shown (N, C = ends). Primed or numbered codes have the meaning given here. [ ]: non-standard residue; d: D form. Yn3(5) = tyrosine residue modified with an azide-capped PEG9 group (O-(PEG9-azido)-tyrosine); Ygp(5) = O-(8x polyethylene glycol-amino)-tyrosine (Tyr-PEG8-amine); Ygp = O-(8x polyethylene glycol-amino)-tyrosine; Yn3 = O-(9x polyethylene glycol-azido)-tyrosine; PEG9′ = polyethylene glycol spacer of 9 units; 4x polyethylene glycol = not defined here; hSer = N[C@@H](CCO)C(=O)O; Nle = CCCC[C@H](N)C(=O)O

Chain of IL-2 receptor βγ complex (CD122/CD132) on HEK-Blue IL-2Rβγ reporter cells (P14784 27-551 limits assumed, chain 1 of 2): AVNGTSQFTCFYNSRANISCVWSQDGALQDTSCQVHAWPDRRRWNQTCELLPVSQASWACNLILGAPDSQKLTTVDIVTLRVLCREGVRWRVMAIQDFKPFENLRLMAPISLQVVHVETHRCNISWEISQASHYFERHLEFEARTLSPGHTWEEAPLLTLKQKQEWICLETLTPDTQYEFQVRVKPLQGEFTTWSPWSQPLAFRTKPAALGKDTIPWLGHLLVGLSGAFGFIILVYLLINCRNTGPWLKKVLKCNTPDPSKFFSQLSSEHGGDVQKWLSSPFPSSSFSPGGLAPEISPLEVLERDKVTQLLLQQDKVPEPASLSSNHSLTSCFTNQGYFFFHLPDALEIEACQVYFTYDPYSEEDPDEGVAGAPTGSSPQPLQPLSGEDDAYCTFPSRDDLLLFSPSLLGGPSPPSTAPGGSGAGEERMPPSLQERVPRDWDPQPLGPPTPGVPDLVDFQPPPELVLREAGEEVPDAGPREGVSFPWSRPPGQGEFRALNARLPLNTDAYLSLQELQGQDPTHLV
Chain of IL-2 receptor βγ complex (CD122/CD132) on HEK-Blue IL-2Rβγ reporter cells (P31785 23-369 limits assumed, chain 2 of 2, further chain): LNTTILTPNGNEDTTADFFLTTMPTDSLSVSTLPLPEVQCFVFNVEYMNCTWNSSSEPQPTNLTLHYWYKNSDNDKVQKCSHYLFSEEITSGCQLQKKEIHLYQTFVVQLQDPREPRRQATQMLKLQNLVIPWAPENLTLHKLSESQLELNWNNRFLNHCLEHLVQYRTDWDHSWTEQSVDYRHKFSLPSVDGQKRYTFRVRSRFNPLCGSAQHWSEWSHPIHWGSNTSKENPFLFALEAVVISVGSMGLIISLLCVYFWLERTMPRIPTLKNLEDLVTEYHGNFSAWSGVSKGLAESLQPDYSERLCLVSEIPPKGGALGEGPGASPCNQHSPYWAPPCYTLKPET
Chain of IL-2 receptor βγ complex on human cells (pan T cells, PBMC NK cells, NK92 PD1+ cells) (human) (P14784 27-551, chain 1 of 2): as the sequence (P14784 27-551 limits assumed, chain 1 of 2) above
Chain of IL-2 receptor βγ complex on human cells (pan T cells, PBMC NK cells, NK92 PD1+ cells) (human) (P31785 23-369, chain 2 of 2, further chain): as the sequence (P31785 23-369 limits assumed, chain 2 of 2, further chain) above

The first test concerns the target IL-2 receptor βγ complex (CD122/CD132) on HEK-Blue IL-2Rβγ reporter cells (UniProt P14784). Put plainly: cell-based or functional assay.
The molecule B1 registered an Average EC50, HEK-Blue IL-2R (CD122+, CD132+) reporter assay of 3.37 nM. In turn, B2 had an Average EC50, HEK-Blue IL-2R (CD122+, CD132+) reporter assay of 0.0597 nM. On the same count and under the same terms, the figure for B3 is 1.05 nM. Same read-out and setting: the figure for B4 is 0.168 nM; for B5 it is 0.34 nM; for B6 it is 4.2 nM.

B7 yielded an Average EC50, HEK-Blue IL-2R (CD122+, CD132+) reporter assay of 0.0259 nM. Regarding B8, the Average EC50, HEK-Blue IL-2R (CD122+, CD132+) reporter assay came out at 0.192 nM. On the same count and under the same terms, to B9 belongs 0.436 nM. Still for that read-out and setting: to B10 belongs 0.106 nM; to B11, 4.22 nM; to B12, 0.0507 nM. B13 yielded an Average EC50, HEK-Blue IL-2R (CD122+, CD132+) reporter assay of 0.181 nM.

Consider B14, for which the Average EC50, HEK-Blue IL-2R (CD122+, CD132+) reporter assay worked out at 0.521 nM.

Turning to B15, the Average EC50, HEK-Blue IL-2R (CD122+, CD132+) reporter assay came to 10.8 nM. As to B16, the Average EC50, HEK-Blue IL-2R (CD122+, CD132+) reporter assay is 0.775 nM. The same measure, in the same setting: to B17 belongs 2.47 nM; to B18, 0.0392 nM. The same measure, in the same setting: the figure for B19 is 0.049 nM.

A further test has as its target IL-2 receptor βγ complex on human cells (pan T cells, PBMC NK cells, NK92 PD1+ cells) (human) (UniProt P14784). Put plainly: cell-based or functional assay.
For the molecule B1, the Average EC50, pSTAT5 assay in NK cells is 37.4 nM. Still for that read-out and setting: the figure for B3 is 7.72 nM; for B6 it is 55.1 nM.

B7 showed an Average EC50, pSTAT5 assay in NK cells of 0.388 nM.

B11 gave an Average EC50, pSTAT5 assay in NK cells of 65.2 nM. Molecule B12 gave an Average EC50, pSTAT5 assay in NK cells of 0.804 nM. On the same count and under the same terms, to B13 belongs 2.94 nM. Same read-out and setting: to B15 belongs 15.7 nM. B16 yielded an Average EC50, pSTAT5 assay in NK cells of 13.2 nM. Same read-out and setting: to B17 belongs 33.7 nM. Still for that read-out and setting: the figure for B18 is 0.571 nM; for B19 it is 0.713 nM.
